# Read-outs that look alike come from different tables or passages of the source.
# T1: rhDtk-Fc (R and D Systems, cat No 859-DK) (human, UniProt Q06418 41-428, limits assumed)
# T1 construct: Bought
# T1 sequence (looked up): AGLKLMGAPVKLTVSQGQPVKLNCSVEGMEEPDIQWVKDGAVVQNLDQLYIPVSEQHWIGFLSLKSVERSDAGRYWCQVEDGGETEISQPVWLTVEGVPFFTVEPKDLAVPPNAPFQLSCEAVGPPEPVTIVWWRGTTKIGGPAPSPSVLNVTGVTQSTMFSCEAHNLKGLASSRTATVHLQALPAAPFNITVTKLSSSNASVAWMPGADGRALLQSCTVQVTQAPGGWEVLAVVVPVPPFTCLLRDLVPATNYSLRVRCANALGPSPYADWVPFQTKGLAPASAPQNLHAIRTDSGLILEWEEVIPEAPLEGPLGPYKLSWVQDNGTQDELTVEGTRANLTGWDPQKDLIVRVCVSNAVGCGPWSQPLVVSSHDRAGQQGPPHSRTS
# T2: rhMer-Fc (R and D Systems, cat No 891-MR) (human, UniProt Q12866 26-499, limits assumed)
# T2 construct: Bought
# T2 sequence (looked up): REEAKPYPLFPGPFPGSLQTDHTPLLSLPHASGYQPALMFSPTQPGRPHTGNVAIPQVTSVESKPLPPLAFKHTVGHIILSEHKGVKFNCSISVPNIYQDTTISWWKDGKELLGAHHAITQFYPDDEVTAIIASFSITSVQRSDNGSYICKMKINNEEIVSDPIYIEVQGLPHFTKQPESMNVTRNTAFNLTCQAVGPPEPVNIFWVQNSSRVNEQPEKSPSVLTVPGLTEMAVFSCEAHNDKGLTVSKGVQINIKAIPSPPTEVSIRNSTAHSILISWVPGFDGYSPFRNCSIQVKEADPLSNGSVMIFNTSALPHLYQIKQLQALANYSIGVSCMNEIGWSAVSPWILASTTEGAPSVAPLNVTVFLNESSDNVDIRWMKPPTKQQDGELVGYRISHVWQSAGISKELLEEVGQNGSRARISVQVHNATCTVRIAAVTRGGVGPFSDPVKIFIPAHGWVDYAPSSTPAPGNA
# How the values were obtained:
# [1] = target: T3, human IGF-1R, native, on MCF-7 cells or on hIGF-1R transfected cells (human, UniProt P08069 31-1367); test: cell-based or functional assay
# [2] = target: T3, human IGF-1R, native, on MCF-7 cells or …; test: cell-based or functional assay; remark: listed apart in the source
# [3] = target: T3, human IGF-1R, native, on MCF-7 cells or …; test: cell-based or functional assay; remark: listed apart in the source
# [4] = target: T4, human Axl receptor on human tumor cells (SN12C and other lines) (human, UniProt P30530 26-894); test: FACS titration on MDA-MB-231 cells, anti-mouse Alexa 488
# T4 construct: also called membrane Axl receptor; cell-surface Axl
# T4 sequence (P30530 26-894 D266N limits assumed): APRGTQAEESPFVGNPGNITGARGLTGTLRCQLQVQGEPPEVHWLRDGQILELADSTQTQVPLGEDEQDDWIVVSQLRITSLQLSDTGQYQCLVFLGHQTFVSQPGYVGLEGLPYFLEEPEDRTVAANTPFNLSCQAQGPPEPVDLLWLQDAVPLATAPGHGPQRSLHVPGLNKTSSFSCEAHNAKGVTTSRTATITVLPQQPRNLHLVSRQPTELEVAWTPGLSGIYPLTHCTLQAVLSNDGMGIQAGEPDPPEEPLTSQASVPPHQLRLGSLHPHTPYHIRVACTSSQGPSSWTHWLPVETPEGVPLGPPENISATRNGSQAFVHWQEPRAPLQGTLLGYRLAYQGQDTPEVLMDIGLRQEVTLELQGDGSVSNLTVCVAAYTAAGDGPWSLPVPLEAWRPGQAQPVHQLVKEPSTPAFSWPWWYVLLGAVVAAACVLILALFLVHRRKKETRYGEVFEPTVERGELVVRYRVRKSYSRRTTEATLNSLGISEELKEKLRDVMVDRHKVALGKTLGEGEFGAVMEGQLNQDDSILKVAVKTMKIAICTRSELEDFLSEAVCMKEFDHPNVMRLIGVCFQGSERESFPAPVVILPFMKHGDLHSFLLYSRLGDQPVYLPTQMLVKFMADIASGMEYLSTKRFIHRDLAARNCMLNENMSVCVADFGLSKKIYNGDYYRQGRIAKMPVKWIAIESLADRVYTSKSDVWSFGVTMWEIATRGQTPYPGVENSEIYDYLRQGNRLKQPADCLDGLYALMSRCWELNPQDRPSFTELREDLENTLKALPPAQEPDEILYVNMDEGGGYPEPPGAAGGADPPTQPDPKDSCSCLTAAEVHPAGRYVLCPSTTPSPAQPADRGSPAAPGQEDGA
# Description: (§1) After 3 washes in phosphate-buffered saline (PBS) supplemented with 1% BSA and 0.01% NaN₃, cells were incubated with secondary antibody Goat anti-mouse Alexa 488 (1/500° dilution) for 20 minutes at 4° C. After 3 additional washes in PBS supplemented with 1% BSA and 0.1% NaN₃, cells were analyzed by FACS (Facscalibur, Becton-Dickinson). At least 5000 cells were assessed to calculate the mean value of fluorescence intensity.
# [5] = target: T1, rhDtk-Fc (R and D Systems, cat No …); test: ELISA on coated rhDtk-Fc, anti-mouse IgG-HRP, TMB
# Description: (§2) Then 1/2 serial dilutions were done over 12 columns. Plates were washed and a goat anti-mouse (Jackson) specific IgG-HRP was added for 1 h at 37° C. Reaction development was performed using the TMB substrate solution. […] Coating controls were performed in presence of a goat anti-human IgG Fc polyclonal serum labelled with HRP (Jackson, ref 109-035-098) and/or in presence of a HRP-coupled anti-Histidine antibody (R and D Systems, ref: MAB050H).
# [6] = target: T4, human Axl receptor on human tumor cells …; test: FACS titration on SN12C cells, anti-mouse Alexa 488
# Description: as §1
# [7] = target: T2, rhMer-Fc (R and D Systems, cat No …); test: ELISA on coated rhMer-Fc, anti-mouse IgG-HRP, TMB
# Description: as §2
# [8] = target: T5, rhAxl-Fc protein (R and D Systems, cat No 154-AL) (human, UniProt P30530 26-451); test: ELISA on coated rhAxl-Fc, anti-mouse IgG-HRP, TMB
# T5 construct: Bought; also called recombinant human Axl-Fc
# T5 sequence (P30530 26-451 D266N): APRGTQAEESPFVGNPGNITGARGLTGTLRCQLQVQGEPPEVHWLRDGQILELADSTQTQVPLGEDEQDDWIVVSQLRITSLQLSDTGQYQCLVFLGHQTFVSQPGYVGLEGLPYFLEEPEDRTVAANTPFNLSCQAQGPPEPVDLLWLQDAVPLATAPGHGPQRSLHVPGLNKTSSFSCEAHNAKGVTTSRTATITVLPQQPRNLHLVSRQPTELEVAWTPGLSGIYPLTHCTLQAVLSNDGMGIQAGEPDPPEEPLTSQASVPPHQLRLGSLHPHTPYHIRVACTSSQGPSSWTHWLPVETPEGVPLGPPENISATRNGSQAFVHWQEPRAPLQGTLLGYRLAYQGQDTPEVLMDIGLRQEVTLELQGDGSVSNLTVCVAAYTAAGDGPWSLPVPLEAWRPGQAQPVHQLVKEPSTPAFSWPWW
# Description: as §2
Binder,"ΔMFI (MCF-7, 4°C minus 37°C, 4 h) [2] [MFI]","phosphorylation of hIGF-1R as % of phosphorylation induced by IGF-1 (MCF-7, 10 µg/ml Ab) [3] [%]",inhibition of hIGF-1R phosphorylation in response to IGF-1 (MCF-7) [3] [%],further results
"hz208F2 VH3/VL3 (antibody, human IgG1, kappa, V domains shown) VH: QVQLVQSGAEVKKPGASVKMSCKASGYTFTSYYIYWVKQAPGQGLEWLGWIWPGDGSTKYNEKFQGRVTLTADKSSNTAYMFLSSLRSEDTAVYFCASPMITPNYAMDYWGQGTLVTVSS VL: DIQMTQSPSSLSASVGDRVTISCRASQDISKYLNWYQQKPGKAPKLLIYYTSRLHSGVPSRFSGRGSGTDYSLTISNLQPEDFATYFCQQGSTLPYTFGGGTKVEIKR",–,–,–,"% internalization (MCF-7, 10 µg/ml) [1]: 87%; ΔMFI (MCF-7, 4°C minus 37°C, 4 h) [1]: 344 MFI"
"c212A11 (antibody, human IgG1, kappa, V domains shown) VH: QVQLQQSGPELVKPGASVKMSCKASGYTFTSYYIHWVKQRPGQGLEWIGWIWPGDGSTKYNEKFKGKTTLTADKSSSTAYMFLSSLTSEDSAVYFCASPMITPNYAMDYWGQGASVTVSS VL: DIQMTQTTSSLSASLGDRVTISCRASQDINKYLNWYQQQPDGTVKLLIYYTSRLHSGVPSRFSGRGSGTDYSLTISNLEQEDIATYFCQQGSTLPYTFGGGTKLEIKR",322,< 10,–,–
"m212A11 (antibody, V domains shown) VH: QVQLQQSGPELVKPGASVKMSCKASGYTFTSYYIHWVKQRPGQGLEWIGWIWPGDGSTKYNEKFKGKTTLTADKSSSTAYMFLSSLTSEDSAVYFCASPMITPNYAMDYWGQGASVTVSS VL: DIQMTQTTSSLSASLGDRVTISCRASQDINKYLNWYQQQPDGTVKLLIYYTSRLHSGVPSRFSGRGSGTDYSLTISNLEQEDIATYFCQQGSTLPYTFGGGTKLEIK",–,–,> 80,–
"c219D6 (antibody, human IgG1, kappa, V domains shown) VH: QVQLQQSGPELVKPGDSVKMSCKASGYSFTSYFIHWVKQRPGQGLEWIGWIWPGDGSTKYNEKFKGKTTLTTDKSSSTAYMFLNSLTSEDSAVYFCASPMITPNYAMDYWGQGASVTVSS VL: DIQMTQTTSSLSASLGDRVTISCRASQDISKYLNWYQQQPDGTVKLLIYYTSRLHSGVPSRFSGRGSGTDYSLTISNLEQEDIATYFCQQGSTLPYTFGGGTKLEIKR",353,< 10,–,–
"m214F8 (antibody, V domains shown) VH: QVQLQQSGSELVKPGASVKLSCKASGYTFTSYYIHWVKQRPGQGLEWIGWIWPGDGSTKYNERFKGKTTLTADKSSSTAYMFLSSLTSEDSAVYFCASPMITPNYAMDYWGQGASVTVSS VL: DIQMTQTTSSLSASLGDRVTFSCRASQDISKYLNWYQQQPDGTIKLLIYYTSRLHSGVPSRFSGRGSGTDYSLTITNLEQEDIATYFCQQGSALPYTFGGGTKLEIK",–,–,> 80,–
"m213B10 (antibody, V domains shown) VH: QVQLQQSGSELVKPGASVKMSCKASGYTFTSYYIHWVKQRPGQGLEWIGWIWPGDGSTKYNERFKGKTTLTADKSSSTAYMFLSSLTSEDSAVYFCASPMITPNYAMDYWGQGASVTVSS VL: DIQMTQTTSSLSASLGDRVTISCRASQDISKYLNWYQQQPDGTIKLLIYYTSRLHSGVPSRFSGRGSGTDYSLTITNLEQEDIATYFCQQGSALPYTFGGGTKLEIK",–,–,> 80,–
"c208F2 (antibody, human IgG1, kappa, V domains shown) VH: QVQLQQSGPELVKPGASVKMSCKASGYTFTSYYIYWVKQRPGQGLEWLGWIWPGDGSTKYNEKFKDKTTLTADKSSNTAYMFLSSLTSEDSAVYFCASPMITPNYAMDYWGQGASVTVSS VL: DIQMTQTTSSLSASLGDRVTISCRASQDISKYLNWYQQQPDGTIKLLIYYTSRLHSGVPSRFSGRGSGTDYSLTISNVEQEDIATYFCQQGSTLPYTFGGGTKLEIKR",288,< 10,–,"% internalization (MCF-7, 10 µg/ml) [1]: 82%; ΔMFI (MCF-7, 4°C minus 37°C, 4 h) [1]: 278 MFI"
"c213B10 (antibody, human IgG1, kappa) heavy: not shown light: DIQMTQTTSSLSASLGDRVTISCRASQDISKYLNWYQQQPDGTIKLLIYYTSRLHSGVPSRFSGRGSGTDYSLTITNLEQEDIATYFCQQGSALPYTFGGGTKLEIKRTVAAPSVFIFPPSDEQLKSGTASVVCLLNNFYPREAKVQWKVDNALQSGNSQESVTEQDSKDSTYSLSSTLTLSKADYEKHKVYACEVTHQGLSSPVTKSFNRGEC",369,< 10,–,–
"m219D6 (antibody, V domains shown) VH: QVQLQQSGPELVKPGDSVKMSCKASGYSFTSYFIHWVKQRPGQGLEWIGWIWPGDGSTKYNEKFKGKTTLTTDKSSSTAYMFLNSLTSEDSAVYFCASPMITPNYAMDYWGQGASVTVSS VL: DIQMTQTTSSLSASLGDRVTISCRASQDISKYLNWYQQQPDGTVKLLIYYTSRLHSGVPSRFSGRGSGTDYSLTISNLEQEDIATYFCQQGSTLPYTFGGGTKLEIK",–,–,> 80,–
"c214F8 (antibody, human IgG1, kappa) heavy: not shown light: DIQMTQTTSSLSASLGDRVTFSCRASQDISKYLNWYQQQPDGTIKLLIYYTSRLHSGVPSRFSGRGSGTDYSLTITNLEQEDIATYFCQQGSALPYTFGGGTKLEIKRTVAAPSVFIFPPSDEQLKSGTASVVCLLNNFYPREAKVQWKVDNALQSGNSQESVTEQDSKDSTYSLSSTLTLSKADYEKHKVYACEVTHQGLSSPVTKSFNRGEC",403,< 10,–,–
"m208F2 (antibody, V domains shown) VH: QVQLQQSGPELVKPGASVKMSCKASGYTFTSYYIYWVKQRPGQGLEWLGWIWPGDGSTKYNEKFKDKTTLTADKSSNTAYMFLSSLTSEDSAVYFCASPMITPNYAMDYWGQGASVTVSS VL: DIQMTQTTSSLSASLGDRVTISCRASQDISKYLNWYQQQPDGTIKLLIYYTSRLHSGVPSRFSGRGSGTDYSLTISNVEQEDIATYFCQQGSTLPYTFGGGTKLEIK",–,–,> 80,"% internalization (MCF-7, 10 µg/ml) [1]: 88%; ΔMFI (MCF-7, 4°C minus 37°C, 4 h) [1]: 294 MFI"
"m1613F12 (antibody, V domains shown, Murine monoclonal antibody, detected with anti-mouse IgG; also called murine 1613F12; hybridoma I-4505) VH: EVHLQQSGAELVKPGASVKLSCTASGFNIRDTYIHWVKQRPEQGLEWIGRLDPANGHTKYGPNFQGRATMTSDTSSNTAYLQLSSLTSEDTAVYYCARGAYYYGSSGLFYFDYWGQGTTLSVSS VL: DVQITQSPSYLATSPGETITINCRASKSISKYLAWYQEKPGKTNKLLIYSGSTLQSGVPSRFSGSGSGTDFTLTISSLEPEDFAMYFCQQHHEYPLTFGAGTELELK",–,–,–,EC50 (read off the curve) [4]: ~1 nM; binding result [5]: no binding (tested: log (M) -7.5 (about 3e-8 M)); EC50 (read off the curve) [6]: ~0.9 nM; binding result [7]: no binding (tested: log (M) -7.5 (about 3e-8 M)); EC50 (read off the curve) [8]: ~1 nM

# Reference: US20190269788A1 (PIERRE FABRE MEDICAMENT, published 2019)
